Source: article PMC12132378 (bioRxiv, 2025)

Target: Ub-Lys-TAMRA (UniProt P0CG48 1-76, Ub is isopeptide-linked to a TAMRA-labeled Lys-Gly dipeptide (modification at the Ub C-terminus))
Test: fluorescence polarisation

Kd: ~20 µM
B1: RNF114 (wild type, full length) (enzyme)
chain: MAAQQRDCGGAAQLAGPAAEADPLGRFTCPVCLEVYEKPVQVPCGHVFCSACLQECLKPKKPVCGVCRSALAPGVRAVELERQIESTETSCHGCRKNFFLSKIRSHVATCSKYQNYIMEGVKATIKDASLQPRNVPNRYTFPCPYCPEKNFDQEGLVEHCKLFHSTDTKSVVCPICASMPWGDPNYRSANFREHIQRRHRFSYDTFVDYDVDEEDMMNQVLQRSIIDQ
